Experimental data from patent US20020088017A1, “Adenosine deaminase deficient transgenic mice and methods for the use thereof” (Board of Regents, The University of Texas System, priority 1999, published 2002).

Columns and labels:
[1] = system: adenosine in the lungs of ADA deficient mice; test: Quantification of adenosine in lungs (reversed phase HPLC) after PEGADA; format: in vivo
Experimental: FIG. 5A and FIG. 5B. Reversible lung eosinophilia and lung adenosine levels in ADA deficient mice treated with PEGADA. FIG. […] Differentials were determined by counting 200 cells from BALF cytospins of each sample, and multiplying the percentage of each cell type found by the total number of cells in the BALF. Mean values are given as total cells (S.E.M.). FIG. […] Mean values are given as nanomoles adenosine per mg protein±S.E.M.
PEGADA, also known as ADAGEN, was obtained through collaboration with Enzon Inc. (Piscataway, N.J.). Control or ADA deficient mice were lightly anesthetized and injected intramuscularly with 10 microlitetrs of PEGADA corresponding to approximately 2.5 Units of ADA. […] Levels of ADA enzyme activity in tissues was measured using zymogram analysis according to established procedures (Blackburn et al., 1998). […]
Mice were anesthetized with avertin, the thoracic cavity exposed, and the lungs were removed and frozen rapidly in liquid nitrogen to prevent metabolism of adenine nucleotides and nucleosides. Adenine nucleosides were extracted from frozen lungs using 0.4 N perchloric acid as described (Knudsen et al., 1992), and adenosine was separated and quantitated using reversed phase HPLC according to established procedures (Knudsen et al., 1992). […]

ADA deficient mice [2] = test: Cellular differentials in bronchial alveolar lavage fluid (BALF) after PEGADA; format: in vivo
Experimental: FIG. 5A and FIG. 5B. Reversible lung eosinophilia and lung adenosine levels in ADA deficient mice treated with PEGADA. FIG. 5A, Total cellular differentials of cells collected from BALF of 18-day old control mice (n=19), ADA deficient mice (n=12) and ADA deficient mice treated with PEGADA and examined 72 hours later (n=5). Differentials were determined by counting 200 cells from BALF cytospins of each sample, and multiplying the percentage of each cell type found by the total number of cells in the BALF. Mean values are given as total cells (S.E.M.). FIG. 5B, Adenosine levels were quantitated in the lungs of 18-day old control mice (n=5), ADA deficient mice (n=4), and ADA deficient mice treated with PEGADA and examined 72 hours later (n=4). Mean values are given as nanomoles adenosine per mg protein±S.E.M.
Mice were anesthetized with avertin and the trachea exposed using blunt dissection. After securing a blunted 21-gauge needle into the trachea, the lungs were lavaged 5 times with 0.25 ml PBS. Lavages from individual animals were pooled and on average 0.95 to 1 ml of lavage fluid was recovered. Samples were centriflged at 2,500 rpm for 5 min to recover cells. Supernatant from these spins were collected and stored at −70 degrees C. for the analysis of cytokines. Cells were resuspended in 200 microliter PBS, an aliquot counted using a hemocytometer and another aliquot cytospun onto microscope slides where cells were stained with Diff-Quick (Dade) for cellular differentials. […] cells per sample were identified and counted under oil immersion.
PEGADA, also known as ADAGEN, was obtained through collaboration with Enzon Inc. (Piscataway, N.J.). […] Levels of ADA enzyme activity in tissues was measured using zymogram analysis according to established procedures (Blackburn et al., 1998). […]
(§1) Cell populations were monitored in BALF collected from ADA deficient mice 72 hours following treatment with PEGADA (FIG. 5A), in order to determine what effect PEGADA treatment had on lung inflammation. […]

ADA deficient humans = details: weekly intramuscular injection; cited from earlier work
ADA deficient mice [3] = test: PEGADA enzyme therapy of ADA deficient mice: respiratory status and survival; format: in vivo
Excerpt: The inventors contemplate that PEGADA treatments may be chronic or acute. In preferred chromic treatments a constant level of PEGADA is maintained in the mouse at concentrations of 150 to 300 U/Kg. In preferred acute treatments, a single dose of PEGADA (300 U/Kg) is given.
For chronic treatment of the mice of the present invention, litters are given an intramuscular injection of PEGADA at four days of postnatal file. The initial dose of PEGADA given is approximately 300 U/Kg body weight, where U (unit) is defined as 1 μmole adenosine converted to inosine per minute. this dose is within an order of magnitude of that given to treat ADA deficient humans. Mice were treated every four days with a dose of 150 to 300 U/Kg.
For acute treatment of the mice of the present invention, mice are injected intramuscularly once on postnatal day 18 with 300 U/kg PEGADA.
PEGADA, also known as ADAGEN, was obtained through collaboration with Enzon Inc. (Piscataway, N.J.). Control or ADA deficient mice were lightly anesthetized and injected intramuscularly with 10 microlitetrs of PEGADA corresponding to approximately 2.5 Units of ADA. […] Levels of ADA enzyme activity in tissues was measured using zymogram analysis according to established procedures (Blackburn et al., 1998). This procedure visualizes enzyme activity on non-denaturing agarose gels (Blackburn et al., 1998).
Polyethylene glycol modified ADA (PEGADA) enzyme therapy is a lifesaving strategy used to treat ADA deficient humans (Hershfield et al., 1993). […] The inventors treated ADA deficient mice with intramuscular injections of PEGADA (ENZON, Inc.; Piscataway, N.J.) in an attempt to modulate the respiratory distress seen. Mice were treated intramuscularly with 300 units of PEGADA. […] Even more striking was the observation that PEGADA could reverse the phenotype of an ADA deficient animal after its onset. ADA deficient animals were allowed to develop severe lung inflammation and damage (day 17), and were then treated with PEGADA.

ADA deficient mice [4] = test: ELISA of serum IgE and BALF cytokines after PEGADA; format: in vivo; details: PEGADA enzyme therapy
Experimental: IFNg, IL-4 and IL-5 levels in BALF were determined using specific murine OptiEA ELISA kits from Pharmagen according to manufactures instructions. For the analysis of IgE levels, blood was collected from the heart of anesthetized mice and the serum separated by centrifugation of samples at 3,000 rpm for 10 min a 4 degrees C. A murine OptiEA ELISA kit from Pharmagen was utilized to quantitate serum IgE levels. Values were read and quantitated at linerarity using a MRX II plate reader equipped with Revelation software (Dynex Technologies).
PEGADA, also known as ADAGEN, was obtained through collaboration with Enzon Inc. (Piscataway, N.J.). Control or ADA deficient mice were lightly anesthetized and injected intramuscularly with 10 microlitetrs of PEGADA corresponding to approximately 2.5 Units of ADA. Injections were given either chronically every 4 days starting at postnatal day 4, or acutely, as one injection on postnatal day 18. Levels of ADA enzyme activity in tissues was measured using zymogram analysis according to established procedures (Blackburn et al., 1998). This procedure visualizes enzyme activity on non-denaturing agarose gels (Blackburn et al., 1998).
as §1

[5] = 72 hours following treatment with PEGADA
[6] = weekly intramuscular injections of PEGADA from birth

B1: PEGADA: ADA polypeptides conjugated to polyethylene glycol; also known as ADAGEN, obtained from Enzon Inc. (protein, UniProt P56658 2-363, looked up)
Adenosine deaminase: AQTPAFNKPKVELHVHLDGAIKPETILYYGRKRGIALPADTPEELQNIIGMDKPLSLPEFLAKFDYYMPAIAGCREAVKRIAYEFVEMKAKDGVVYVEVRYSPHLLANSKVEPIPWNQAEGDLTPDEVVSLVNQGLQEGERDFGVKVRSILCCMRHQPSWSSEVVELCKKYREQTVVAIDLAGDETIEGSSLFPGHVKAYAEAVKSGVHRTVHAGEVGSANVVKEAVDTLKTERLGHGYHTLEDATLYNRLRQENMHFEVCPWSSYLTGAWKPDTEHPVVRFKNDQVNYSLNTDDPLIFKSTLDTDYQMTKNEMGFTEEEFKRLNINAAKSSFLPEDEKKELLDLLYKAYGMPSPASAEQCL
modifications: PEG conjugate (pegademase)
accumulation of adenosine in the lung [1]: prevents the accumulation of adenosine in the lung
adenosine levels in ADA deficient lungs ([1]; 72 hrs following treatment with PEGADA, control < 0.2, untreated ADA deficient 6.3 nmoles/mg protein): lowered to near control levels
alveolar macrophages in BALF (ADA deficient mice [2]; [5]): remained elevated
number of eosinophils in BALF (ADA deficient mice [2]; [5]): greatly reduced
number of eosinophils found in the BALs (ADA deficient mice [2]; treatment with PEGADA, as stated in Example 9): decrease in the number of eosinophils
accumulation of ADA substrates in ADA deficient humans (ADA deficient humans): prevents the accumulation of ADA substrates
rescue of ADA deficient mice that without treatment die by three weeks of age (ADA deficient mice [3]; chronic treatment, intramuscular, approx. 300 U/Kg at postnatal day 4, then every four days 150 to 300 U/Kg): sufficient to rescue ADA deficient mice
recovery and survival (ADA deficient mice [3]; treated after onset of severe lung inflammation and damage (day 17)): recovered and survived as long as they were maintained on PEGADA
respiratory status (ADA deficient mice [3]; treated after onset of severe lung inflammation and damage (day 17), within 24 to 48 hours): noticeably improved
development of pulmonary problems (ADA deficient mice [3]; [6]): never develop pulmonary problems
survival (ADA deficient mice [3]; [6]): survive as long as the animals are maintained on PEGADA
outcome when PEGADA therapy was stopped (ADA deficient mice [3]; withdrawal of PEGADA therapy): rapidly showed signs of pulmonary insufficiency and died within a week
levels of BALF cytokines (ADA deficient mice [4]): no effect
levels of serum IgE (ADA deficient mice [4]): no effect
